From US20170326229A1 come the findings set out here.

Assay in all cases: ELISA, gp120 on plate
(In general: An ELISA detects its analyte on a solid surface through an enzyme-linked reagent.)

Assay [1] addresses CH505 Env w100.A13 gp120 (HIV-1).
Assay [2] concerns the target CH505 Env w053.29 gp120 (HIV-1).
The target in assay [3] is CH505 Env w053.31 gp120 (HIV-1).
Assay [4] deals with CH505 Env w078.6 gp120 (HIV-1).
Assay [5] has as its target CH505 Env w030.13 gp120 (HIV-1).
In assay [6] the target is CH505 Env w100.B2 gp120 (HIV-1).
The target in assay [7] is CH505 Env w136.B5 gp120 (HIV-1).
Assay [8] addresses CH505 Env w078.9 gp120 (HIV-1).
Assay [9] concerns the target CH505 Env w004.54 gp120 (HIV-1).
The target of assay [10] is CH505 Env w136.B23 gp120 (HIV-1).
Assay [11] addresses CH505 Env w020.15 gp120 (HIV-1).
Assay [12] concerns the target CH505 Env w053.22 gp120 (HIV-1).
For assay [13], the target named is CH505 transmitted/founder (TF) Env gp120 (HIV-1).
Assay [14] deals with CH505 Env w053.15 gp120 (HIV-1).
Assay [15] has as its target CH505 Env w078.15 gp120 (HIV-1).
In assay [16] the target is CH505 Env w136.B2 gp120 (HIV-1).
The target in assay [17] is CH505 Env w136.B10 gp120 (HIV-1).
Assay [18] has as its target CH505 Env w078.17 gp120 (HIV-1).
In assay [19] the target is CH505 Env w030.36 gp120 (HIV-1).
Assay [20] deals with CH505 Env w030.21 gp120 (HIV-1).
In assay [21] the target is CH505 Env w020.11 gp120 (HIV-1).
For assay [22], the target named is CH505 Env w100.B4 gp120 (HIV-1).
For assay [23], the target named is CH505 Env w030.17 gp120 (HIV-1).
Assay [24] addresses CH505 Env w160.T4 gp120 (HIV-1).
For assay [25], the target named is CH505 Env w020.25 gp120 (HIV-1).
Assay [26] addresses CH505 Env w030.20 gp120 (HIV-1).
Assay [27] addresses CH505 Env w078.33 gp120 (HIV-1).

For “CH103 CD4 binding site broadly neutralizing antibody”, the log-transformed AUC in [1] is 12.9 log AUC; in [2], 10.2 log AUC; in assay [3] it was 13.6 log AUC; in assay [4], 9.9 log AUC; in [5], 12.9 log AUC; in assay [6], 3.2 log AUC. The log-transformed AUC in assay [7] was determined as 4.3 log AUC; in [8], 8.9 log AUC; in [9], 9.2 log AUC; in [10], 11.8 log AUC; in [11] it was 11.8 log AUC; in assay [12], 11.6 log AUC. Moreover, the log-transformed AUC in [13] worked out at 12.6 log AUC; in assay [14], 11.2 log AUC; in assay [15] it was 10.7 log AUC; in assay [16], 10.8 log AUC; in assay [17], 11.5 log AUC; in assay [18] it was 11.3 log AUC. The log-transformed AUC in [19] is 9.1 log AUC; in assay [20] it was 12.2 log AUC; in [21], 9.6 log AUC; in assay [22] it was 9.7 log AUC; in assay [23], 9.9 log AUC; in [24], 9 log AUC. Besides, the log-transformed AUC was 10.3 log AUC in assay [25], 9.5 log AUC in assay [26] and 11.1 log AUC in [27].
With “CH106 (CH103 lineage monoclonal antibody)”, the log-transformed AUC in [1] came to 12 log AUC; in assay [2], 9.7 log AUC; in assay [3], 13.4 log AUC; in [4], 6.7 log AUC; in [5], 11.9 log AUC; in assay [6], 7.8 log AUC. The log-transformed AUC was found to be 10.9 log AUC in assay [7]; 8.3 log AUC in assay [8]; 8.1 log AUC in assay [9]; 13.3 log AUC in assay [10]; 10.5 log AUC in assay [11]; 9.8 log AUC in assay [12]. The log-transformed AUC in assay [13] came out at 11.3 log AUC; in assay [14], 10.1 log AUC; in assay [15], 11 log AUC; in [16], 12.7 log AUC; in assay [17], 9 log AUC; in [18], 8.7 log AUC. Further, the log-transformed AUC came out at 8.5 log AUC in assay [19]; 10.9 log AUC in assay [20]; 5.4 log AUC in assay [21]; 12.6 log AUC in assay [22]; 8.2 log AUC in assay [23]; 12.3 log AUC in assay [24]. The log-transformed AUC in assay [25] turned out to be 9.4 log AUC; in assay [26], 7.3 log AUC; in assay [27], 9.5 log AUC.
Consider “CH103 lineage intermediate ancestor IA4 (antibody)”, for which the log-transformed AUC came out at 7.4 log AUC in [5]; 2.8 log AUC in [9]; 9.1 log AUC in assay [11]; 0.2 log AUC in assay [12]; 10.1 log AUC in [13]; 1.3 log AUC in [15]. For the same substance, the log-transformed AUC in assay [21] was found to be 0.8 log AUC; in assay [25], 7.3 log AUC.
Regarding “CH103 lineage intermediate ancestor IA1 (antibody)”, the log-transformed AUC in assay [1] was 12.6 log AUC; in assay [2] it was 8.8 log AUC; in [3], 13.4 log AUC; in [4], 3 log AUC; in assay [5], 10.5 log AUC; in assay [6], 7.3 log AUC. The log-transformed AUC in [7] was 9.5 log AUC; in assay [8], 6.3 log AUC; in assay [9], 6.2 log AUC; in [10], 14.4 log AUC; in assay [11], 9.9 log AUC; in assay [12], 8.8 log AUC. The log-transformed AUC was 10.4 log AUC in assay [13]; 9.2 log AUC in assay [14]; 10.9 log AUC in assay [15]; 13.2 log AUC in [16]; 9.2 log AUC in assay [17]; 9 log AUC in assay [18]. Moreover, the log-transformed AUC in assay [19] worked out at 6.7 log AUC; in assay [20], 11.8 log AUC; in [21], 1.8 log AUC; in [22] it was 13.7 log AUC; in [23] it was 5.8 log AUC; in assay [24], 13.6 log AUC. In addition, the log-transformed AUC came to 8.6 log AUC in [25], 5.7 log AUC in assay [26] and 8.2 log AUC in [27].
With “CH103 lineage intermediate ancestor IA6 (antibody)”, the log-transformed AUC in assay [5] was 6.5 log AUC; in assay [9], 2.9 log AUC; in assay [11], 7.8 log AUC; in [13] it was 9.1 log AUC; in assay [15], 1 log AUC; in [21], 0.8 log AUC. The substance also yielded a log-transformed AUC in [25] of 6 log AUC.
On to “CH103 lineage intermediate ancestor IA8 (antibody)”, for which the log-transformed AUC was determined as 2 log AUC in assay [5]; 0.5 log AUC in [9]; 4.2 log AUC in [11]; 5.5 log AUC in assay [13]; 0.9 log AUC in [21]; 2.4 log AUC in [25].
For the substance “CH103 lineage intermediate ancestor IA3 (antibody)”, the log-transformed AUC in assay [5] amounted to 9 log AUC; in assay [9], 5.1 log AUC; in assay [11], 10.2 log AUC; in assay [12] it was 1.1 log AUC; in [13] it was 11 log AUC; in assay [15], 3 log AUC. Besides, the values for the log-transformed AUC in assay [21] and in [25] were 0.8 log AUC and 8.6 log AUC, respectively.
“CH103 lineage intermediate ancestor IA2 (antibody)”: the log-transformed AUC in [1] is 12.5 log AUC; in assay [2], 9.2 log AUC; in [3] it was 13.3 log AUC; in assay [4], 4.6 log AUC; in [5], 11.4 log AUC; in [6], 7.5 log AUC. For the same substance, the log-transformed AUC in [7] was found to be 9.9 log AUC; in assay [8], 7.2 log AUC; in [9], 6.8 log AUC; in assay [10], 14.3 log AUC; in assay [11] it was 10.5 log AUC; in assay [12] it was 9.3 log AUC. The log-transformed AUC in [13] was 10.8 log AUC; in assay [14], 9.5 log AUC; in assay [15], 11.5 log AUC; in assay [16], 13.1 log AUC; in [17], 9.7 log AUC; in assay [18], 9.9 log AUC. Moreover, the log-transformed AUC in [19] came to 7.3 log AUC; in assay [20], 11.5 log AUC; in assay [21], 2.6 log AUC; in assay [22], 13.4 log AUC; in [23] it was 7 log AUC; in assay [24], 13.4 log AUC. For the same substance, the log-transformed AUC in [25] was determined as 9 log AUC; in assay [26], 6.3 log AUC; in assay [27], 9 log AUC.
Consider “CH103 lineage unmutated common ancestor (UCA) (antibody)”, for which the log-transformed AUC amounted to 0.3 log AUC in assay [5], 1.6 log AUC in assay [11], 3.5 log AUC in assay [13] and 0.8 log AUC in assay [25].
Turning to “CH103 lineage intermediate ancestor IA7 (antibody)”, the log-transformed AUC in assay [5] is 4.7 log AUC; in assay [9], 2.3 log AUC; in [11], 8.2 log AUC; in assay [13], 9.2 log AUC; in assay [15], 0.7 log AUC; in assay [21], 0.1 log AUC. This substance showed a log-transformed AUC in [25] of 6.4 log AUC.
